Laboratory results reported in the supplement of paper PMC7125110.
± gives the standard error. Variants at the floor of the assay were thinned out.

B1: glmS ribozyme (parent)
chain: AUAAAAGCGCCAGAACUACAGAAAUGUAGUUGACGAGGAGGAGGUUUAUCGAAUUUUCGGCGGAUGCCUCCAAA

Legend:
Conditions in all cases: with glucosamine-6-phosphate
glucosamine-6-phosphate [1] = variants of: B1; experiment: self-cleavage kobs at 40 uM GlcN6P; higher = faster cleavage; RNA array
In short: (§1)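 E. coli RNA polymerase transcribed barcoded ribozyme variants in situ on sequenced MiSeq chips, which were tracked via a hybridised Cy3 probe at 37 °C. Tiles were imaged over ~14 h after glucosamine-6-phosphate (40 μM to 10 mM) in HEPES/KCl/Mg(OAc)2 buffer was flowed in. Normalised per-tile medians were fit to one- or two-exponential decays for kobs, and kcat and KM came from weighted Michaelis–Menten fits.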

glucosamine-6-phosphate [2] = variants of: B1; experiment: self-cleavage kobs at 10000 uM GlcN6P; higher = faster cleavage; RNA array
In short: as §1

glucosamine-6-phosphate [3] = variants of: B1; experiment: self-cleavage kobs at 640 uM GlcN6P; higher = faster cleavage; RNA array
In short: as §1

glucosamine-6-phosphate [4] = variants of: B1; experiment: self-cleavage kobs at 160 uM GlcN6P; higher = faster cleavage; RNA array
In short: as §1

glucosamine-6-phosphate [5] = variants of: B1; experiment: self-cleavage kobs at 2500 uM GlcN6P; higher = faster cleavage; RNA array
In short: as §1

Variant	self-cleavage kobs at 40 uM GlcN6P (glucosamine-6-phosphate [1]) [s⁻¹]	self-cleavage kobs at 10000 uM GlcN6P (glucosamine-6-phosphate [2]) [s⁻¹]	self-cleavage kobs at 640 uM GlcN6P (glucosamine-6-phosphate [3]) [s⁻¹]	self-cleavage kobs at 160 uM GlcN6P (glucosamine-6-phosphate [4]) [s⁻¹]	self-cleavage kobs at 2500 uM GlcN6P (glucosamine-6-phosphate [5]) [s⁻¹]
AUAAAAGCGCCAGAACUACAGAAAUGUAGCUGACGAGGAGGAAGUAUAUCGAAUUUUCGGCGGAUGCCUCCAAA [U30C G43A U46A]	< 1e-05	–	–	–	–
AUAAAAGCGCCAGAACUACAGAAAUGUAGCUGACCAGGAGGAGGUUUAUCGAAUUUUCCGCGGAUGCCUCCAAA [U30C G35C G59C]	< 1e-05	< 1e-05	–	–	–
AUAAAAGCGCCAGAACUACAGAAAUGUAGGUGACGUGGAGGAGGUUUAUCAAAUUUUCGGCGGAUGCCUCCAAA [U30G A36U G51A]	< 1e-05	–	–	–	–
AUAAAAGCGCCAGAACUACAGAAAUGUAGGGGACGAGGAGGAGGUGUAUCGAAUAUUCGGCGGAUGCCUCCAAA [U30G U31G U46G U55A]	0.000118 ± 3.3e-05	0.00358 ± 0.00067	–	–	–
AUAAAAGCGCCAGAACUACAGAAAUGUAGGUGACGAGGAGGAGGUUUAUCGAAUUUUCGUCGGAUGCCUCCAAA [U30G G60U]	< 1e-05	< 1e-05	< 1e-05	–	–
AUAAAAGCGCCAGAACUACAGAAAUGUAGGUGACGGGGAGGAGGUUUAUCGAAGUUUCGGCGGAUGCCUCCAAA [U30G A36G U54G]	< 1e-05	< 1e-05	–	–	–
AUAAAAGCGCCAGAACUACAGAAAUGUAGUAGACGAGGAGGAGGUUUAUCGAAUUUUCGGAGGUUGCCUCCAAA [U31A C61A A64U]	< 1e-05	< 1e-05	–	–	–
AUAAAAGCGCCAGAACUACAGAAAUGUAGCUGACGAGUAGGAGGUUUAUCGAAUUUUCGGUGGAUGCCUCCAAA [U30C G38U C61U]	< 1e-05	–	–	–	–
AUAAAAGCGCCAGAACUACAGAAAUGUAGGUGACGAGGAGGAGGUUAAUCGAAUUUUCGGCGGAUGCCUCCAAA [U30G U47A]	0.000162 ± 3.5e-05	0.00566 ± 0.0013	–	–	–
AUAAAAGCGCCAGAACUACAGAAAUGUAGCUGACGAGGAGGAGGAUCAUUGAAUUUUCGUCGGAUGCUUCCAAA [U30C U45A U47C C50U G60U C68U]	< 1e-05	–	–	–	–
AUAAAAGCGCCAGAACUACAGAAAUGUAGUAGACGAGGAGGAGGUUUAUCGAAUUUUCGGCGGCUGCCUCCAAA [U31A A64C]	< 1e-05	4.57e-05 ± 1e-05	–	–	–
AUAAAAGCGCCAGAACUACAGAAAUGUAGGUGACGAGGAGGAGGUUUAUCGAAUUUUCGGCGGAUGCCUCUAAA [U30G C71U]	0.00033 ± 5e-05	0.00769 ± 0.0016	0.00135 ± 0.00022	0.000449 ± 0.00011	0.00639 ± 0.0013
AUAAAAGCGCCAGAACUACAGAAAUGUAGCUGACGAGGAGGAUGUUUAUCGAAUUUUCGGCGGAUGCCUACAAA [U30C G43U C70A]	< 1e-05	–	–	–	–
AUAAAAGCGCCAGAACUACAGAAAUGUAGUAGACGGGGAGGAGGUUUAUCGCAUUUUCGGCGGAUGCCUCCAAA [U31A A36G A52C]	< 1e-05	< 1e-05	–	–	–
AUAAAAGCGCCAGAACUACAGAAAUGUAGCCGACGAGGAGGAGGUUUAUCGAAUUUUCGGCGGAUGCCUCCAAA [U30C U31C]	3.3e-05 ± 1.1e-05	0.00328 ± 0.00041	0.000788 ± 0.00016	0.000413 ± 7.4e-05	0.00125 ± 0.00016
AUAAAAGCGCCAGAACUACAGAAAUGUAGUAGACCUGGAGGAGGUUUAUCGAAUUUUCGGCGGAUGCCUCCAAA [U31A G35C A36U]	< 1e-05	< 1e-05	< 1e-05	–	–
AUAAAAGCGCCAGAACUACAGAAAUGUAGGUGACGAGGAGGAGGUUCAUCGAAUUUUCGGCGGAUGCCUGCAAA [U30G U47C C70G]	< 1e-05	7.72e-05 ± 2.2e-05	5.55e-05 ± 2e-05	–	0.000116 ± 2.6e-05
